# Where two headings read alike, the source gives them in different places.
# T1: human factor XIIa (human, UniProt P00748 20-615, biotinylated with Biotin Ester (Zymed); sites not stated)
# T1 chain: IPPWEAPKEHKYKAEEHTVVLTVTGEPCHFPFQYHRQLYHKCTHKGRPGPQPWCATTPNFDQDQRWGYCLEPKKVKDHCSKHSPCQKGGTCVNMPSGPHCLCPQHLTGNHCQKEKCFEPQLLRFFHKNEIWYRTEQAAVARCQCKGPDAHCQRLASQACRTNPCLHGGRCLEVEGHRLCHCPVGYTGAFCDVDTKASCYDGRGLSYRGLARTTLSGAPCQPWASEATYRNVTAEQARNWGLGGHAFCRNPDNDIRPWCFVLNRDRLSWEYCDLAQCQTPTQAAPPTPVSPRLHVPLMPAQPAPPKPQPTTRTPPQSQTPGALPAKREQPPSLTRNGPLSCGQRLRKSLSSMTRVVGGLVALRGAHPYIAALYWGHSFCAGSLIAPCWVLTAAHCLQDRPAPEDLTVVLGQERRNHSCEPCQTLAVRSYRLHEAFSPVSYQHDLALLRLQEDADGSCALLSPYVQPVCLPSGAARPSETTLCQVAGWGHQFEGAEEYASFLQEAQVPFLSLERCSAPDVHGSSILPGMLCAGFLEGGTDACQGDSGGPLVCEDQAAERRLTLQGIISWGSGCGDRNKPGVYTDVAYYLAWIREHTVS
# Assays:
# Test in all cases: enzyme inhibition
# [1] = molecular target: T1, human factor XIIa
# [2] = molecular target: T2, human plasma kallikrein (human, UniProt P03952 20-638)
# T2 sequence (P03952 20-638): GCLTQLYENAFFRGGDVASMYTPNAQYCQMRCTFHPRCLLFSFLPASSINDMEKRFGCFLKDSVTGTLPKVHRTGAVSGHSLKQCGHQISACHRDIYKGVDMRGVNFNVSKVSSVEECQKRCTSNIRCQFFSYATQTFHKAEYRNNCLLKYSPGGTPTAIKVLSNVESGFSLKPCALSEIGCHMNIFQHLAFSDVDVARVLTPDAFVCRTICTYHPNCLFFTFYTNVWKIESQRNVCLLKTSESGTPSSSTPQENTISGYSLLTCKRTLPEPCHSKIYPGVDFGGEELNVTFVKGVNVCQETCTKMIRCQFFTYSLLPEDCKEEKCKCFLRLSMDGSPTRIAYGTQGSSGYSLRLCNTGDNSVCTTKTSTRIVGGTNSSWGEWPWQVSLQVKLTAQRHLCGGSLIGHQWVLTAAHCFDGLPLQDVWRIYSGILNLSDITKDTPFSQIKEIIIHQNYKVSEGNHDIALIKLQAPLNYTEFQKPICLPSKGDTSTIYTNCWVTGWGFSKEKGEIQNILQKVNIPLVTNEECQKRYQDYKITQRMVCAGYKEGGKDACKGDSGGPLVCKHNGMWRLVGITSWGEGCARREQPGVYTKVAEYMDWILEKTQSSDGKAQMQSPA
# [3] = molecular target: T2, human plasma kallikrein; remark: listed apart in the source
# [4] = molecular target: T1, human factor XIIa
# [5] = molecular target: T2, human plasma kallikrein; remark: listed apart in the source
# [6] = molecular target: T2, human plasma kallikrein; remark: listed apart in the source
binder,measurement,setting,value
TW6166 (protein) EVVREVCSEQAETGPCRAAIYRWYFDVTEGKCAPFFYGGCGGNRNNFDTEEYCMAVCGSAI,Ki,[1],73 nM
TW6165 (protein) EVVREVCSEQAETGPCRAAIWRWYFDVTEGKCAPFFYGGCGGNRNNFDTEEYCMAVCGSAI,Ki,[1],206 nM
DD111 (protein) EVVREVCSEQAETGPCRASISRWYFDVTEGKCAPFFYGGCGGNRNNFDTEEYCMAVCGSAI,Ki,[2],5.6 nM
TW6194 (protein) EVVREVCSEQAETGPCRAMIERWYFDVTEGKCAPFFYGGCGGNRNNFDTEEYCMAVCGSAI,Ki,[3],70.8 nM
TW101 (protein) EVCSEQAETGPCKAMISRWYFDVTEGKCAPFFYGGCGGNRNNFDTEEYCMAVCGSAI,Ki,[2],2000 nM
TW6210 (protein) EVVREVCSEQAETGPCRAMIQRWYFDVTEGKCAPFFYGGCGGNRNNFDTEEYCMAVCGSAI,Ki,[3],54 nM
same,Ki,[4],277 nM
DD102 (protein) EVVREVCSEQAETGPCRAMIPRWYFDVTEGKCAPFFYGGCGGNRNNFDTEEYCMAVCGSAI,Ki,[3],16 nM
same,Ki,[4],315 nM
BG028 (protein) EVVREVCSEQAETGPCRALIYRWYFDVTEGKCAPFFYGGCGGNRNNFDTEEYCMAVCGSAI,Ki,[1],93.8 nM
TW6149 (protein) EVVREVCSEQAETGPCRAMISRWYFDVTEGKCAPFFYGGCGGNANNFDTEEYCMAVCGSAI,Ki,[5],54 nM
TW6158 (protein) EVVREVCSEQAETGPCRAMISRWYFDVTEGKCAPFFYGGCTGNRNNFDTEEYCMAVCGSAI,Ki,[6],29 nM
DD100 (protein) EVVREVCSEQAETGPCRAMISRWYFDVTEGKCAPFFYGGCCGNRNNFDTEEYCMAVCGSAI,Ki,[6],15 nM
TW106 (protein) EVCSEQAETGPCRARISRWYFDVTEGKCAPFFYGGCGGNRNNFDTEEYCMAVCGSAI,Ki,[2],560 nM
TW6181 (protein) EVVREVCSEQAETGPCRAMKSRWYFDVTEGKCAPFFYGGCGGNRNNFDTEEYCMAVCGSAI,Ki,[3],150 nM
same,Ki,[4],1510 nM
TW124 (protein) EVCSEQAETGPCRAMISRWYFDVTEGKCAPFFYGGCGGNSNNFDTEEYCMAVCGSAI,Ki,[5],64 nM
TW6182 (protein) EVVREVCSEQAETGPCRAMIHRWYFDVTEGKCAPFFYGGCGGNRNNFDTEEYCMAVCGSAI,Ki,[3],36 nM
same,Ki,[4],752 nM
TW6148 (protein) EVVREVCSEQAETGPCRAMISRWYFDVTEGKCAPFFYGGCGGARNNFDTEEYCMAVCGSAI,Ki,[5],40 nM
TW6141 (protein) EVVREVCSEQAETGPCRAMISRWYFDVTEGKCAPFFYGGCQGNRNNFDTEEYCMAVCGSAI,Ki,[6],42 nM

# Reference: patent US6906033 (dated 2005)
